Test results: US20230192845A1 (BLINK BIOMEDICAL, published 2023)

T1: human CD96 short isoform v2 expressed on CHO cells (human, UniProt P40200 22-585)
T1 construct: also called hCD96v2; CD96v2; not shown: C-terminal HA-tag
T1 sequence: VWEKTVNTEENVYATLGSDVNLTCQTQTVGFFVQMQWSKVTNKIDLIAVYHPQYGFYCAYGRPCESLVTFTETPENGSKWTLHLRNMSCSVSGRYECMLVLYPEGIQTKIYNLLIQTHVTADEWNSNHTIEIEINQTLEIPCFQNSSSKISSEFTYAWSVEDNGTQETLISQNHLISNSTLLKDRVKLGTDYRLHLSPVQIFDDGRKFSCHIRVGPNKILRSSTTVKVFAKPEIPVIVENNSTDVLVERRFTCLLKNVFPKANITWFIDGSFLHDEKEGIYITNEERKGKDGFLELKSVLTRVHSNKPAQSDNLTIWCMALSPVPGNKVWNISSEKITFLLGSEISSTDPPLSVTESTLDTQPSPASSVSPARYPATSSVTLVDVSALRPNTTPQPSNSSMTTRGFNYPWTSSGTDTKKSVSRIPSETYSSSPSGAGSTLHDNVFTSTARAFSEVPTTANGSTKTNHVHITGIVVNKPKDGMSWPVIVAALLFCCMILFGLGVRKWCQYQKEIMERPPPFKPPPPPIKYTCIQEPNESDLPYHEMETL

T2: mouse CD96 expressed on CHO cells (mouse, UniProt Q3U0X8 22-602)
T2 construct: whole, on cells; also called mCD96
T2 sequence (looked up): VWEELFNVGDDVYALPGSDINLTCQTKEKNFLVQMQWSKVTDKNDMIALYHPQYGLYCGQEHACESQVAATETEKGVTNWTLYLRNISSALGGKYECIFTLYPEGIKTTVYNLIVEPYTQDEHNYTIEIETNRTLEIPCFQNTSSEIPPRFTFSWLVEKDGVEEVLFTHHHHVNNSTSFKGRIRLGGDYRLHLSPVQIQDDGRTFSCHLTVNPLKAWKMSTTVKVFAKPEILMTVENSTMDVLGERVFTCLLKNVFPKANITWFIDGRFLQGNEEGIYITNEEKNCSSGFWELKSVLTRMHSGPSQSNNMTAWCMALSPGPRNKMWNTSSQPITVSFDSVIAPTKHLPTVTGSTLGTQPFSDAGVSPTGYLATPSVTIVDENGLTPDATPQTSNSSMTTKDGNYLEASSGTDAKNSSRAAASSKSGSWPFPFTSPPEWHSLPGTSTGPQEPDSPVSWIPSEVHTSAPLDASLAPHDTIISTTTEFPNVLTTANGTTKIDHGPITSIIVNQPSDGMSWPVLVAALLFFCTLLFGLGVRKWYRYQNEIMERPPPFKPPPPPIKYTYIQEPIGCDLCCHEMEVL

T3: rhesus CD96 transiently expressed on CHO cells (rhesus, UniProt P40200 22-585 (human entry))
T3 construct: also called rhesus CD96, short isoform
T3 chain: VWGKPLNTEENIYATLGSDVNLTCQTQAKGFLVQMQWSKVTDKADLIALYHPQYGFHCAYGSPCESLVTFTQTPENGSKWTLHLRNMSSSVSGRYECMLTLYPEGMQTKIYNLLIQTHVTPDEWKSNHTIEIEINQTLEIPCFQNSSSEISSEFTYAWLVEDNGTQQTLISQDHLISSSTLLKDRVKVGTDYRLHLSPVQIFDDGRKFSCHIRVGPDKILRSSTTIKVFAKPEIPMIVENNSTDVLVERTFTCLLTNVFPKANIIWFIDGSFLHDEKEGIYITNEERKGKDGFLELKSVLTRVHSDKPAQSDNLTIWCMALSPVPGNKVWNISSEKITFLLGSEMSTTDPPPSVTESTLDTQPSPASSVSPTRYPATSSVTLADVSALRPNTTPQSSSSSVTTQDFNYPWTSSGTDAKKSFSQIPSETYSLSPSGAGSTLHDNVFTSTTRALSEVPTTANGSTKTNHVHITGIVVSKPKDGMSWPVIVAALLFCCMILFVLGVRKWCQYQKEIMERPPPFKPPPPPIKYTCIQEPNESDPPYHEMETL

B1: BL006-19-21G1-21K1 (antibody, V domains shown)
VH: QVQLQQPGAELVKPGASVKMSCKASGYTFISYWITWVKQRPGQGLEWIGDIYPGSGHTNYNEKFKSKATLTVDTSSSTAYMQLSSLTSEDSAVYYCARPTVEAMDYWGQGTSVTVSS
VL: QIVLTQSPAIMSASPGEKVTMTCSASSSVNYMHWYQQRSGTSPKRWIYDTSKLASGVPARFSGSGSGTSYSLTISSMEAEDAATYYCQQWSNNPLTFGAGTKLELK
notes: Recombinant mIgG2a/kappa (also made as mIgG2a-D265A); also called candidate NO 13
B2: BL006-19-190G4-190K6 (antibody, V domains shown)
VH: EVQLVESGGGLVQPGGSLKLSCAASGFTFSNYGMSWVRQTPDKRLELVATINSNGGSTYYPDSVKGRFTISRDNAKNTLYLQMSSLKSEDTAMYYCTKRGAWYFDVWGTGTTVTVSS
VL: DIQMTQSSSSFSVSLGDRVTITCKASEDIYNRLAWYQQKPGNAPRLLISSATSLETGVSSRFSGSGSGKDYTLSITSLQTEDVATYYCQQYWTTPTWTFGGGTKLEIK
notes: Recombinant mIgG2a/kappa (also made as mIgG2a-D265A); also called candidate NO 16
B3: BL006-9-1G1-1K1 (antibody, V domains shown)
VH: EVKLVESGGGLVKPGGSLKLSCAASGFTFSSYAMSWVRQTPERGLEWVAAIQSNGGSTFYPDTVKDRFTISRDNAKNTLYLQMSSLRSEDTALYYCVRGPFDYWGQGTTLTVSS
VL: QIVLTQSPAIMSASPGQKVTIPCSASSSVNYIHWFQQKLGSSPKLWIYDTSKLTPGVPARFSGSGSGTSYSLTISSMEAEDAASYFCHQWRSYPPTFGGGTKLEIK
notes: Recombinant mIgG2a/kappa (also made as mIgG2a-D265A); also called candidate NO 11
B4: BL006-19-183G3-183K4 (antibody, V domains shown)
VH: QVTLNESGPGILQPSQTLSLTCSFSGFSLTTYGMGVGWIRQPSGKSLEWLANIWWTEDKYYNSALKSRLTISTDTSHNQVFLKISSVDTEDTATYYCAQMGPEVYSAMDYWGQGTSVTVSS
VL: DIVMTPSQKFMSTTVGDRVSITCKASQNVGTAVAWYQQKPGHSPKLLIYSASNRNTGVPDRFTGSGSGTDFTLTISNMQSEDLADYFCHQYSRYPWTFGGGTKLEIK
notes: Recombinant mIgG2a/kappa (also made as mIgG2a-D265A); also called BL006-19-183G3-183K4 #3; candidate NO 8
B5: BL006-11-5G1-5K3 (antibody, V domains shown)
VH: EVQLVESGGGLVKPGGSLKLSCAASGFTFSSYAMSWVRQTPEKRLEWVAAINTDGASTYFPATVKDRFTISRDNAKNTLYLQMSSLRSEDTALYYCARPLEPGSWFAYWGQGTLVTVSA
VL: DVLMTQTPLSLPVSLGDQASISCRSSQSIVHSNGNTYLEWYLQKPGQSPKVLIYKVSNRFSGVPDRISGSGSGTDFTLKISRVEAGDLGVYYCFQGSHVPYTFGGGTKLEIK
notes: Recombinant mIgG2a/kappa (also made as mIgG2a-D265A); also called BL006-11-5G1-5K3 #5; candidate NO 5
B6: BL006-4-61G5-61K1 (antibody, V domains shown)
VH: EVKLEESGGGLVQPGGSMKLSCVASGFTFSNYWMNWVRQSPEKGLEWVAQIRFKSDNYATHYAESVKGRFTISRDDSKSSVYLQMHNLRAEDTGIYYCTEFAYWGQGTLVTVSA
VL: QILLTQSPAIMSASPGEKVTMTCSASSRVNSRFLNWYQQKSGVSPKLWIYGTSNLASGVPARFSGSGSGTSYSLTISSVEAEDVATYYCQQYQSDPPITFGAGTRLELI
notes: Recombinant mIgG2a/kappa (also made as mIgG2a-D265A); also called BL006-4-61G5-61K1 #7; candidate NO 3
B7: BL006-19-55G10-55K7 (antibody, V domains shown)
VH: QVQLQQSGAEVVRPGTSVKMSCKAAGYTFTDNWIDWVKQRPGHGLDWIGNIFPGGNYTNYNEKFKGKATLTADTSSSTAYMQLINLTSEDSAIYYCVRAVADSQFAYWGQGTLVTVSA
VL: QIVLTQSPAIMSVSPGEKVTMTCSASSRVTYMYWYQQKPGSSPKPWIYRTSNLASGVPVRFSGSGSGTSYSLTISSMEAEDAATYYCQQWSSNPLTFGAGTKLELK
notes: Recombinant mIgG2a/kappa (also made as mIgG2a-D265A); also called candidate NO 15

These binders were tested against T1, human CD96 short isoform v2 expressed … (assay: FCM on hCD96v2-CHO cells).
Description: FIG. 6: Binding profiles of anti-hCD96 antibodies on human CD96-transfected CHO cells (hCD96v2, short isoform). CHO cells expressing hCD96v2 were incubated with serial dilution of the indicated mIgG1 or mIgG2a anti-CD96 or isotype control antibodies. […] The results are expressed as the difference of mean fluorescence intensity (delta MFI) between cells stained with antibodies and cells without antibodies. Dose response curves were obtained from GraphPad prism software using a non-linear regression fit with a variable slope model (4 parameters). To simplify the reading, results from the various anti-hCD96 candidates are shown on 4 different panels.
The capacity of the identified mouse anti-CD96 antibodies to recognize the cell membrane expressed human CD96 was further analyzed by flow cytometry (FCM) by using CHO cells stably transfected with the CD96 short isoform v2 (CD96v2; Genbank accession number NM_005816, flanked in C-terminus with HA-tag) (SEQ ID NO: 268).
Mouse anti-CD96 antibodies and isotype control antibodies were incubated at various concentrations from 10 μg/mL to 4.6 ng/mL with CHO cells expressing human CD96 at +4° C. for 30 minutes. […] The differences between the mean fluorescence intensity (MFI) obtained for each of the antibody concentration and the intensity obtained in absence of primary antibody (delta-MFI), were calculated and plotted against the concentrations of antibodies.

EC50 [nM]	Maximum binding (delta MFI)	Binder
6.53	599000	B1
3.39	711000	B2
17.5	514000	B3
4.56	681000	B4
12.8	373000	B5
2.05	330000	B6
3.3	636000	B7

These binders were tested against T2, mouse CD96 expressed on CHO cells (assay: FCM on CHO cells expressing mouse CD96).
Description: (§1) The capacity of the identified mouse anti-human CD96 antibodies to recognize the CD96 protein from other species was further analyzed by flow cytometry by using CHO cells expressing the mouse or the rhesus CD96. The expression of the species-specific CD96 on CHO cell surface was confirmed by using staining with appropriate anti-CD96 antibodies and flow cytometry on non-fixed cells. The rat anti-mCD96 antibody clone #630612 (R&D Systems) and the candidate BL006-9-1 (positive by ELISA on rhesus CD96) were used to confirm the expression of rhesus CD96, while the clone 6A6 (rat IgG2a, e-Bioscience) was used to verify the expression of mouse CD96.
(§2) Mouse anti-CD96 antibodies and isotype control antibodies were incubated at 10 or 1 μg/mL with CHO cells expressing different CD96 species at +4° C. for 30 minutes.

binding result	Binder
no binding (tested: 1 and 10 µg/mL)	B1
no binding (tested: 1 and 10 µg/mL)	B2
no binding (tested: 1 and 10 µg/mL)	B3
no binding (tested: 1 and 10 µg/mL)	B4
no binding (tested: 1 and 10 µg/mL)	B5
no binding (tested: 1 and 10 µg/mL)	B6
no binding (tested: 1 and 10 µg/mL)	B7

The binders below were run against T1, human CD96 short isoform v2 expressed … (assay: FCM, inhibition of hCD155-Fc binding to hCD96v2-CHO cells).
Description: All candidates except BL006-2-19 that bound very weakly on hCD96v2 by FCM were tested for their capacity to inhibit the binding of human CD155 to hCD96v2 stably expressed on CHO cells. Human CD96-transfected CHO cells (3×10⁵ cells/well of 96-well plate) were incubated at +4° C. for 30 minutes with serial dilutions of anti-CD96 antibodies or isotype control antibody (in mIgG2a or mIgG2aD265A format) in the presence of 4 μg/mL of biotinylated hCD155-Fc (produced and biotinylated at BliNK).
% inhibition=(1−(MFI_wAb&CD155−MFI_CHO)/(MFI_wCD155−MFI_CHO))×100, where MFI_wAb&CD155 is the Mean Intensity Fluorescence (MFI) obtained with the hCD96-CHO cells incubated with the tested antibody and hCD155-hFc; MFI_CHO is the MFI obtained in the absence of hCD155 and mAbs; and MFI_wCD155 is the fluorescence with hCD155 but without pre-incubation with antibody (0% CD155 binding inhibition). The % of inhibition was plotted against antibody concentration and the IC50 values were calculated by using a nonlinear regression analysis model of the GraphPad Prism software.

IC50 [nM]	Maximal Inhibition Capacity (%)	Binder
19.4	100	B1
11.5	98.1	B2
	< 5	B3
15	100	B4
	< 5	B5
	< 5	B6
8.84	98.3	B7

Target: T3, rhesus CD96 transiently expressed on …
Experiment: flow cytometry on CHO cells transiently expressing rhesus CD96; antibody at 1 (thin line) and 10 µg/ml (thick dashed line), filled grey = isotype control
Description: FIG. 7: Binding profiles of anti-CD96 antibodies on CHO cells transfected with rhesus CD96. Anti-CD96 antibodies or the corresponding isotype control mAbs were tested for their capacity to recognize rhesus CD96 transiently expressed on CHO cells by flow cytometry. Each histogram represents the overlay of the fluorescence intensity obtained for each antibody tested at 1 (black line) and 10 μg/ml (thick dashed black line) and compared to the fluorescence obtained with an isotypic control (filled grey histogram).
as §1, §2

binding result	Binder
binds	B1
no binding (tested: 10 µg/ml)	B2
binds	B3
no binding (tested: 10 µg/ml)	B4
no binding (tested: 10 µg/ml)	B5
binds	B6
binds	B7
